Biological target: T1, 重组N蛋白 (新冠病毒 (SARS-CoV-2), UniProt P0DTC9 1-419)
T1 construct: also called 新冠病毒N蛋白
Assay: indirect ELISA

B1: 单抗阻断剂A3-4 (antibody, V domains shown)
VH: EVQLEESGGGLVQPGGSRKLSCIASGIIFHNFGMHWIRQAPEKGLEWVAYISGLSRNISYADTVKGRFTISRDNPKNTLFLQMTSLRSEDTAMYYCSRGWAYDAAFWGQGTLVTVS
VL: DVVMTQTPLTLSVTIGQPASFSCKSSRSLLSSNGKIYLNWLLQRPGQSPKRLIYLVSKLDSGVPDRFTGSGSGTDFTLQINRVEAEDLGVYYCVQGTHFPLTFGAGTKLELKR
notes: also called 新冠病毒检测用单抗阻断剂
B1: no binding.
